# Reference: US20210115144A1 (Dana-Farber, published 2021)
# T1: human HHLA2 expressed on transfected cells (300.19 mouse pre-B cells; CHO cells) (human, UniProt Q9UM44 23-414)
# T1 construct: also called B7-H7; B7H7
# T1 sequence: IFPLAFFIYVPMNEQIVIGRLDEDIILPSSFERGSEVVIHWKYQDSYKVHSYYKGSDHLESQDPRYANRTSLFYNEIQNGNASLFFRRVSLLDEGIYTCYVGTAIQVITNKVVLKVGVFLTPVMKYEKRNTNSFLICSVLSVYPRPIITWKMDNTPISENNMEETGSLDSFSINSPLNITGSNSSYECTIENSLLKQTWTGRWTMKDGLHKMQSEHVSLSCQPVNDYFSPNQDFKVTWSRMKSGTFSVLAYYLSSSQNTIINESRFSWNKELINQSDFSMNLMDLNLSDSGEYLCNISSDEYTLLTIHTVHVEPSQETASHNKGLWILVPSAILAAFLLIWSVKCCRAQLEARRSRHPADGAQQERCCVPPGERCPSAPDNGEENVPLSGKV
# T2: human HHLA2-mIgG2a fusion protein (human; mouse, UniProt Q9UM44 23-344, limits assumed)
# T2 construct: also called hHHLA2-mIgG2a; HHLA2-Fc
# T2 sequence: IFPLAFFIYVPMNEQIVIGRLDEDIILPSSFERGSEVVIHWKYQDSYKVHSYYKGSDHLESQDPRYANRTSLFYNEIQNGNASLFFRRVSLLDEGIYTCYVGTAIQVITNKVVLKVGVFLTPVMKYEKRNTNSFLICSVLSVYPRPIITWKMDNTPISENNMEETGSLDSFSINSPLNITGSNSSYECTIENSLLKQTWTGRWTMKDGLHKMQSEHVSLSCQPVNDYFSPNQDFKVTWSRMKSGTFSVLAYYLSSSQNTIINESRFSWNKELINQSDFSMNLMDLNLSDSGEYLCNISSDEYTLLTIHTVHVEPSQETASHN
# B1: anti-HHLA2 monoclonal antibody 1C8 (antibody, IgG2a, V domains shown)
# VH: EVQLQQSGAELVQPGASVKLSCTASGFNIKDTYMHWVKQRPEQGLEWIGRIDPANGKTIFDPKFQVKATITADTSSNTVYLHLSSLTSEDTAIYYCAWLLPYYFDYWGQGTTLTVSS
# VL: EIVLTQSPAVMAASPGEKVTITCSVSSSISSSNLHWYQQKSGTSPKLWIYGTSNLASGVPVRFSGSGSGTSYSLTISSMEAEDAATYYCQKWSHYPLTFGAGTKLELK
# notes: also called 499.5.1C8.9.12.2; MHC2564
# B2: anti-HHLA2 monoclonal antibody 4D1 (antibody, IgG1, V domains shown)
# VH: QVQLQQSGAELVRPGVSVKISCKGSGYTFTDYAMHWVKQSHAKSLEWIGSISTYYGDTNYNQKFKGKATMTVDKSSSTAYMELARLTSEDSAIYYCARGNYDDWYFNVWGAGTTVTVSS
# VL: DIQMTQSPSSLSASLGERVSLTCRASQDISGYLSWLQQKPDGTIKRLIYSTSTLDSGVPKRFSGSRSGSDYSLTISSLESEDFADYYCLQYASSPYTFGGGAKLEIK
# notes: also called 499.5.4D1.5.16; MHC2563
# B3: anti-HHLA2 monoclonal antibody 2C4 (antibody, IgG1, V domains shown)
# VH: EVHLQQSGPELEKPGVSVKISCKASGFSFTDYNMNWVKQSSGKSLEWIGNIDPYYGRINYNQKFKGKATLSVDKSSSTAYMHLKSLTSEDSAVYYCATGAYTSGYSWFAYWGQGTLVTVSA
# VL: ENVLTQSPGIMAASLGEKVTMTCSASSSVSSSYLHWYQQRSGASPKPLIHRTSNLASGVPARFSGSGSGTSYSLTISSVEAEDDATYYCQQWSGYPFTFGSGTKLEIK
# notes: also called 499.5.2C4.E6.6.8.1; MHC2562
# B4: anti-HHLA2 monoclonal antibody 2G2 (antibody, IgG1, V domains shown)
# VH: EVMLVESGGGLVKPGGSLKLSCAVSGLTFSSYAMSWVRQTPEKRLEWVATISSGGSHTYYPDSVKGRFIISRDNAKNTLYLQMNSLRSEDTAMYYCTRLGRAFDYWGQGTTLTVSS
# VL: DIVMTQSHKFMSTSVGDRVSITCKASQDVSTAVAWYQQKPGQSPKVLIYWASTRHTGVPDRFTGSGSGTDFTLTISSVQAEDLALYYCQQDYSTPWTFGGGTKLEIK
# notes: also called 499.5.2G2.13.3.10; MHC2561
# B5: anti-HHLA2 monoclonal antibody 6D10 (antibody, IgG1, V domains shown)
# VH: EVQLVETGGGLVQPKGSLKLSCAASGFTFNTNVMNWVRQAPGKGLEWVARIRTKTNNYATYYADSVKDRFTIFRDDSQSILYLQMNNLKTEDTAMYYCVGAMDYWGQGTSVTVSS
# VL: DIVLTQSPASLAVSLGQRATISCRASESVDNYGISFMHWYQQKPGQPPKLLIYRASNLKSGIPARFSGSGSRTDFTLTINPVETGDVATYYCQQSSKDPPTFGTGTKLELK
# notes: also called 6DI0; 499.5.6D10.11.11.7
# B6: KIR2DL3 (receptor, human, UniProt P43628 22-341, looked up)
# chain: HEGVHRKPSLLAHPGPLVKSEETVILQCWSDVRFQHFLLHREGKFKDTLHLIGEHHDGVSKANFSIGPMMQDLAGTYRCYGSVTHSPYQLSAPSDPLDIVITGLYEKPSLSAQPGPTVLAGESVTLSCSSRSSYDMYHLSREGEAHERRFSAGPKVNGTFQADFPLGPATHGGTYRCFGSFRDSPYEWSNSSDPLLVSVTGNPSNSWPSPTEPSSETGNPRHLHVLIGTSVVIILFILLLFFLLHRWCCNKKNAVVMDQEPAGNRTVNREDSDEQDPQEVTYAQLNHCVFTQRKITRPSQRPKTPPTDIIVYTELPNAEP
# notes: whole, on cells
# B7: KIR2DS1 (receptor, human, UniProt Q14954 22-304, looked up)
# chain: HEGVHRKPSLLAHPGRLVKSEETVILQCWSDVMFEHFLLHREGMFNDTLRLIGEHHDGVSKANFSISRMKQDLAGTYRCYGSVTHSPYQLSAPSDPLDIVIIGLYEKPSLSAQPGPTVLAGENVTLSCSSRSSYDMYHLSREGEAHERRLPAGTKVNGTFQANFPLGPATHGGTYRCFGSFRDSPYEWSKSSDPLLVSVTGNPSNSWPSPTEPSSETGNPRHLHVLIGTSVVKIPFTILLFFLLHRWCSDKKNAAVMDQEPAGNRTVNSEDSDEQDHQEVSYA
# notes: whole, on cells
# B8: KIR2DS3 (receptor, human, UniProt Q14952 22-304, looked up)
# chain: HEGFRRKPSLLAHPGRLVKSEETVILQCWSDVMFEHFLLHREGTFNDTLRLIGEHIDGVSKANFSIGRMRQDLAGTYRCYGSVPHSPYQFSAPSDPLDIVITGLYEKPSLSAQPGPTVLAGESVTLSCSSWSSYDMYHLSTEGEAHERRFSAGPKVNGTFQADFPLGPATQGGTYRCFGSFHDSPYEWSKSSDPLLVSVTGNPSNSWPSPTEPSSKTGNPRHLHVLIGTSVVKLPFTILLFFLLHRWCSDKKNASVMDQGPAGNRTVNREDSDEQDHQEVSYA
# notes: whole, on cells
# B9: KIR2DS2 (receptor, human, UniProt P43631 22-304, looked up)
# chain: HEGVHRKPSLLAHPGPLVKSEETVILQCWSDVRFEHFLLHREGKYKDTLHLIGEHHDGVSKANFSIGPMMQDLAGTYRCYGSVTHSPYQLSAPSDPLDIVITGLYEKPSLSAQPGPTVLAGESVTLSCSSRSSYDMYHLSREGEAHERRFSAGPKVNGTFQADFPLGPATHGGTYRCFGSFRDSPYEWSNSSDPLLVSVTGNPSNSWPSPTEPSSKTGNPRHLHVLIGTSVVKIPFTILLFFLLHRWCSNKKNAAVMDQEPAGNRTVNSEDSDEQDHQEVSYA
# notes: whole, on cells
# B10: KIR2DS5 (receptor, human, UniProt Q14953 22-304, looked up)
# chain: HEGFRRKPSLLAHPGPLVKSEETVILQCWSDVMFEHFLLHREGTFNHTLRLIGEHIDGVSKGNFSIGRMTQDLAGTYRCYGSVTHSPYQLSAPSDPLDIVITGLYEKPSLSAQPGPTVLAGESVTLSCSSRSSYDMYHLSREGEAHERRLPAGPKVNRTFQADFPLDPATHGGTYRCFGSFRDSPYEWSKSSDPLLVSVTGNSSNSWPSPTEPSSETGNPRHLHVLIGTSVVKLPFTILLFFLLHRWCSNKKNASVMDQGPAGNRTVNREDSDEQDHQEVSYA
# notes: whole, on cells
# Target: T1, human HHLA2 expressed on transfected …
# Test: flow cytometry, mAb on HHLA2-transfected 300.19 mouse pre-B cells
row,EC50,Binder
1,0.63 µg/mL,B1
2,0.44 µg/mL,B2
3,0.24 µg/mL,B3
4,0.21 µg/mL,B4
5,22.5 µg/mL,B5

# Target: T1, human HHLA2 expressed on transfected …
# Test: flow cytometry, mAb titrated on human HHLA2-transfected 300.19 pre-B cells
# Description: (§1) Binding of different HHLA2 mAbs to human and cynomolgus monkey HHLA2 was also tested and EC50 binding analysis was conducted (FIGS. 13A and 13B). […] HHLA2 mAb binding to transfected 300.19 cells was detected with PE-labeled goat anti-mouse IgG (H+L). EC50 analysis was conducted using Graph Pad Prism.
row,EC50,Binder
1,0.29 µg/mL,B3

# Target: T2, human HHLA2-mIgG2a fusion protein
# Test: flow cytometry, mAb pre-incubated with 4 ug/ml HHLA2-mIgG2a; blockade of its binding to TMIGD2-transfected 293T cells
# Description: (§2) HHLA2 mAb cell binding and receptor blockade experiments were then performed. […] HHLA2 mAb binding to transfected 300.19 cells was detected with PE-labeled goat anti-mouse IgG (H+L). For HHLA2 mAb blocking experiments different concentration of HHLA2 mAbs were pre-incubated with 4 ug/ml of HHLA2-mIgG2a at a 1:1 ratio for 30 minutes and added to either TMIGD2 or KIR3DL3 transfected 293T cells and incubated for 30 minutes at 4° C. HHLA2-mIgG2a binding to TMIGD2 or KIR3DL3 transfected 293T cells was detected with a PE labeled Fab2 goat anti-mIgG2a antibody. EC50 and IC50 analyses were conducted using Graph Pad Prism. It was shown that HHLA2 mAb clone 2C4 has desired properties of complete KIR3DL3 blockade and partial TMIGD2 blockade (Table 6).
row,IC50,Binder
1,1.65 µg/mL,B1
2,0.56 µg/mL,B2
3,28.2 µg/mL,B3
4,0.85 µg/mL,B4
5,11.7 µg/mL,B5

# Target: T2, human HHLA2-mIgG2a fusion protein
# Test: cell microarray, HHLA2-mIgG2a on fixed transfected HEK293 cells, AF647 anti-mouse IgG detection
# Description: Human HHLA2-mIgG2a fusion protein was added to slides of fixed, transfected HEK293 cell slides at a 20 ug/ml concentration, and the protein was detected with an AF647 labeled anti-mouse IgG detection antibody. Two replicate slides were screened for each of the 13 slide sets. Fluorescent images were analyzed and quantitated (for transfection efficiency) using ImageQuant software (GE). A protein ‘hit’ was defined as duplicate spots showing a raised signal compared to background levels. This was achieved by visual inspection using the images gridded on the ImageQuant software.
# Addition of the AF647 labeled anti-mouse IgG detection antibody alone in the absence of HHLA2-mIgG2a produced no signal. The selectivity of HHLA2 binding to KIR3DL3 was evaluated using a panel of 14 KIR receptors arrayed on slides.
row,binding result,Binder
1,no binding (tested: 20 ug/ml),B6
2,no binding (tested: 20 ug/ml),B7
3,no binding (tested: 20 ug/ml),B8
4,no binding (tested: 20 ug/ml),B9
5,no binding (tested: 20 ug/ml),B10

# Target: T2, human HHLA2-mIgG2a fusion protein
# Test: flow cytometry, mAb pre-incubated with 4 ug/ml HHLA2-mIgG2a; blockade of its binding to KIR3DL3-transfected 293T cells
# Description: as §2
row,IC50,Binder
1,1.15 µg/mL,B1
2,0.68 µg/mL,B2
3,0.52 µg/mL,B3
4,0.53 µg/mL,B4
5,7 µg/mL,B5

# Target: T1, human HHLA2 expressed on transfected …
# Test: flow cytometry, mAb titrated on HHLA2-transfected 300.19 pre-B cells, PE goat anti-mouse IgG
# Description: as §2
row,EC50,Binder
1,0.63 µg/mL,B1
2,0.44 µg/mL,B2
3,0.24 µg/mL,B3
4,0.21 µg/mL,B4
5,22.5 µg/mL,B5

# Target: T3, cynomolgus monkey HHLA2 expressed on transfected 300.19 pre-B cells (cynomolgus monkey)
# T3 construct: whole, on cells
# Test: flow cytometry, mAb titrated on cynomolgus monkey HHLA2-transfected 300.19 pre-B cells
# Description: FIGS. 13A and 13B show HHLA2 mAb binding to human and cynomolgus monkey HHLA2. […] HHLA2 mAb binding to transfected 300.19 cells was detected with a PE-labeled goat anti-mouse IgG (H+L) by flow cytometry.
# as §1
row,EC50,Binder
1,0.47 µg/mL,B3

# Target: T2, human HHLA2-mIgG2a fusion protein
# Test: flow cytometry, mAb pre-incubated with 4 ug/ml HHLA2-mIgG2a; blockade of its binding to KIR3DL3-transfected 300.19 pre-B cells
# Description: (§3) HHLA2 mAb binding to transfected 300.19 cells was detected with PE-labeled goat anti-mouse IgG (H+L). […] EC50 and IC50 analyses were conducted using Graph Pad Prism. It was shown that HHLA2 mAb clone 2C4 has desired properties of complete KIR3DL3 blockade and partial TMIGD2 blockade (Table 7).
row,IC50,Binder
1,0.97 µg/mL,B3

# Target: T2, human HHLA2-mIgG2a fusion protein
# Test: flow cytometry, mAb pre-incubated with 4 ug/ml HHLA2-mIgG2a; blockade of its binding to TMIGD2-transfected 300.19 pre-B cells
# Description: as §3
row,IC50,Binder
1,7.3 µg/mL,B3

# Target: T1, human HHLA2 expressed on transfected …
# Test: flow cytometry, mAb titrated on HHLA2-transfected 300.19 pre-B cells, PE goat anti-mouse IgG
# Remark: another data set of the same source
# Description: as §1
row,EC50,Binder
1,0.29 µg/mL,B3
